In patent US20230406948A1 (APEXIGEN, published 2023):
No end group written: not given here.

What was measured:
[1] = target: T1, fusion protein of rabbit Fc and OX40 (UniProt P43489 29-216); assay: direct ELISA, 1 ug/ml rabbit Fc-OX40 fusion coated, goat anti-human IgG-HRP
T1 construct: Neither the species nor the order of the parts is stated; not shown: rabbit Fc
T1 sequence (looked up): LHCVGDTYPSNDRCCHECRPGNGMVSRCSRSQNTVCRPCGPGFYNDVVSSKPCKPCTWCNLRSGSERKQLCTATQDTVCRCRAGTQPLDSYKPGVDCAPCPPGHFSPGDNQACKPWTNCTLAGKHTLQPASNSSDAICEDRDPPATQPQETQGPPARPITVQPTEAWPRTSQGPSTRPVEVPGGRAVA
Description: Binding selectivity of APX005 was assessed by direct ELISA to a panel of TNFR family proteins. A total of 1 μg/ml of fusion protein of rabbit Fc and CD40, RANK, TweakR, OX40, DR5 and 4-1 BB were coated on ELISA plates. Bound APX005 was detected using goat anti-human HRP-conjugated IgG.

[2] = target: T2, human CD40 on cells (native CD40 on Ramos cells, human B cells, human monocyte-derived dendritic cells); cell … (human, UniProt P25942 21-193); assay: FACS on live Ramos cells, goat anti-human IgG (H+L) PE
T2 construct: Endogenous CD40 on human cells; also called native CD40 protein; CD40 positive cells
Description: In another experiment, the ability of the CD40 antibodies to bind to native CD40 protein was determined by FACS analysis with live Ramos cells. Ramos cells were harvested and blocked with 1.5 ml blocking buffer (0.1% BSA/PBS) for 30 minutes. Antibodies at various concentrations were added to cells and incubated for 1 hour. After washing, 50 ul Goat-anti-human IgG (H+L) PE antibody at 1:1000 dilution in blocking solution was added and incubated for 30 minutes. Cells were then washed with PBS and were re-suspended with […] and analyzed by FACS. The antibodies tested were the 19-21 rabbit anti-CD40 agonist antibody, SGN-40 developed by Seattle Genetics and CP870893 from Pfizer.

[3] = target: T3, CD40 CLIPS peptide, residues 84-102 of CD40 (84TCEEGWHCTSEACESCVLH102) (human, linker (positions not given here) via CLIPS template (1,3-bis(bromomethyl)benzene); also: cysteine side chains coupled to CLIPS template(s), solid-phase bound peptide of Pepscan array); assay: PEPSCAN-based ELISA on solid-phase CLIPS peptides
T3 construct: It is the unmutated control peptide of the mutagenesis set
T3 peptide: TCEEGWHCTSEACESCVLH
Description: To reconstruct discontinuous epitopes of the target molecule a library of structured peptides was synthesized. This was done using Pepscan's proprietary Chemically Linked Peptides on Scaffolds (CLIPS™) technology (Pepscan Presto, Lelystad The Netherlands) (see e.g., Timmerman et al. (2007). J. Mol. Recognit. 20:283-99; Slootstra et al. (1996). Molecular Diversity 1: 87-96). CLIPS™ technology provides the ability to structure peptides into single loops, double-loops, triple loops, sheet-like folds, helix-like folds and combinations thereof. CLIPS™ templates are coupled to cysteine residues. For this experiment, the side-chains of multiple cysteines in the peptides were coupled to one or two CLIPS™ templates. […]
The binding of antibody to each of the synthesized peptides was tested in a PEPSCAN-based ELISA. […] After one hour, the color development was measured. The color development was quantified with a charge coupled device (CCD)—camera and an image processing system.

[4] = target: T4, mouse CD40 on mouse A20 cells (mouse, UniProt P27512 20-289); assay: FACS on mouse A20 cells, goat anti-human IgG (H+L) R-PE
T4 construct: whole, on cells
Description: Cross-reactivity of APX005 with mouse CD40 was further determined by FACS binding to a mouse A20 cell line which expresses mouse CD40. An aliquot of 0.5×10⁶ A20 cells was added to 96 well plates and incubated with 100 μl diluted rat anti-mouse CD40 antibody conjugated with PE, APX005 or IgG1 control antibodies. After washing, 100 μl Goat-anti human IgG (H+L) conjugated with R-PE (Southern Biotech CAT #2040-09) were added at 1:200 dilution in PBS to the sample and incubated for detection of APX005 and control human IgG1. A rat anti-mouse CD40 antibody conjugated with PE was used as positive control. Samples were re-suspended with 0.5 ml PBS and analyzed by FACS.

T4 sequence (P27512 20-289): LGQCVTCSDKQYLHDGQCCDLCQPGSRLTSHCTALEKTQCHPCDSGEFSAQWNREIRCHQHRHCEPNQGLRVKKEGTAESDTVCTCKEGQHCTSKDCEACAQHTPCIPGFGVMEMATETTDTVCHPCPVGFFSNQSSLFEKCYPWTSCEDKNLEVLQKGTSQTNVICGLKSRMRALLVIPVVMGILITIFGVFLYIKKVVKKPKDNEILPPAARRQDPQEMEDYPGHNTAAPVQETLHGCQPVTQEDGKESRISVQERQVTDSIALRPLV
T2 sequence (P25942 21-193): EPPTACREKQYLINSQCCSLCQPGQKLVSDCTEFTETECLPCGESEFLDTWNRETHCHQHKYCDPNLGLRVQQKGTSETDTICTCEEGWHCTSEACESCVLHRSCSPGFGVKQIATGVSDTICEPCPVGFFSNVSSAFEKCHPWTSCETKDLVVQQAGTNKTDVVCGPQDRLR

binding result [1]: no binding | EC50 [2]: 0.023 µg/mL | binding result [3]: binds | binding result [4]: no binding (tested: 10000 ng/ml)
B1: APX005, humanized version of the R-8 rabbit anti-CD40 antibody (antibody, IgG1, V domains shown)
VH: QVQLVESGGGVVQPGRSLRLSCAASGFSFSSTYVCWVRQAPGKGLEWIACIYTGDGTNYSASWAKGRFTISKDSSKNTVYLQMNSLRAEDTAVYFCARPDITYGFAINFWGPGTLVTVSS
VL: DIQMTQSPSSLSASVGDRVTIKCQASQSISSRLAWYQQKPGKPPKLLIYRASTLASGVPSRFSGSGSGTDFTLTISSLQPEDVATYYCQCTGYGISWPIGGGTKVEIK
notes: also called humanized R-8; APX005 wild type
